{
  "source": "paper PMC2873925",
  "key": {"[1]": {"biological_target": "Neisseria meningitidis Opc protein (outer membrane adhesin), on acapsulate Opc+ bacteria of serogroup A strain C751 (Neisseria meningitidis serogroup A strain C751) (UniProt Q7DDI3)", "assay": "depletion from serum by sequential adsorption with whole bacteria, immuno-dot blot of the serum; a serum sample adsorbed sequentially with three fresh live bacterial suspensions, one hour each; remaining activated Vn (mAb 8E6), total Vn and Fn (polyclonal antibodies) by immuno-dot blot and densitometry"}, "[2]": {"biological_target": "Neisseria meningitidis Opc protein (outer membrane adhesin), on acapsulate Opc+ bacteria of serogroup A strain C751 (Neisseria meningitidis serogroup A strain C751) (UniProt Q7DDI3)"}, "[3]": {"biological_target": "Neisseria meningitidis Opc protein, on capsulate Opc+ bacteria of serogroup B strain MC58 (Neisseria meningitidis serogroup B strain MC58)"}, "[4]": {"biological_target": "Neisseria meningitidis Opc protein, on capsulate Opc+ bacteria of serogroup B strain MC58 (Neisseria meningitidis serogroup B strain MC58)", "assay": "depletion from serum by sequential adsorption with whole bacteria, immuno-dot blot of the serum; a serum sample adsorbed sequentially with three fresh live bacterial suspensions, one hour each; remaining activated Vn (mAb 8E6), total Vn and Fn (polyclonal antibodies) by immuno-dot blot and densitometry"}},
  "data": [
    {"substance": "fibronectin (human), of normal human serum and purified plasma fibronectin, P02751 32-2477 (natural protein)", "values": [
      {"measurement": "percent depleted from serum after three adsorptions", "setting": "[1]", "result": 20, "unit": "%"}
    ]},
    {"substance": "VA-21S, synthetic peptide of vitronectin residues 48-68 sulphated at residues 56 and 59", "values": [
      {"measurement": "inhibition by VA-21S of VA-26S-mediated adhesion of C751 Opc+ Nm to HBMECs (data not illustrated)", "setting": "[2]", "result": 80, "unit": "%"},
      {"measurement": "inhibition by VA-21S of VA-26S-mediated invasion of HBMECs by C751 Opc+ Nm (data not illustrated)", "setting": "[2]", "result": 100, "unit": "%"},
      {"measurement": "inhibition by VA-21S of VA-26S-mediated adhesion of piliated capsulate Opc+ MC58 to HBMECs (data not illustrated)", "setting": "[3]", "result": 40, "unit": "%"},
      {"measurement": "inhibition by VA-21S of VA-26S-mediated invasion of HBMECs by piliated capsulate Opc+ MC58 (data not illustrated)", "setting": "[3]", "result": "> 80", "unit": "%"}
    ]},
    {"substance": "activated vitronectin (human), from normal human serum, purified by heparin-sepharose chromatography (natural protein)", "values": [
      {"measurement": "percent depleted from serum after two adsorptions", "setting": "[1]", "result": "> 75", "unit": "%"},
      {"measurement": "percent depleted from serum after three adsorptions", "setting": "[4]", "result": 81, "unit": "%"}
    ]},
    {"substance": "vitronectin of normal human serum (total Vn, detected with polyclonal anti-Vn) (natural protein)", "values": [
      {"measurement": "percent depleted from serum after three adsorptions", "setting": "[1]", "result": 25, "unit": "%"}
    ]}
  ]
}
